The results in this text go back to patent publication US20210017293 (published 2021).

Positions count from the first letter of the chain named. Names and notes keep the numbering of the source. Read-outs that look alike come from different tables or passages of the source.

Assay [1] addresses T1, human TNFR1 (human, UniProt P19438).
T1 chain: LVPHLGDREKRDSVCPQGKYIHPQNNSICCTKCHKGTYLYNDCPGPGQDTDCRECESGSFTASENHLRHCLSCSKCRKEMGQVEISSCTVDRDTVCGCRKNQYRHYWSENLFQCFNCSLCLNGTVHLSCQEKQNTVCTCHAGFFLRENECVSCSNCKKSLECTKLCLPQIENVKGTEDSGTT
Briefly: ELISA. For orientation: ELISA stands for enzyme-linked immunosorbent assay.

Assay [2] concerns the target T1, human TNFR1. Briefly: ELISA.
The target in assay [3] is T1, human TNFR1. Briefly: ELISA.
Assay [4] addresses T1, human TNFR1. Put plainly: SPR. (Surface plasmon resonance follows binding to a sensor surface in real time, without labels.)
The target of assay [5] is DMS30038-R (DMS30051) (human). Briefly: SPR 37C.

B1: DOM1H-131-206 P14A + C-terminal ASTKG (antibody, V domains shown)
VH: EVQLLESGGGLVQAGGSLRLSCAASGFTFAHETMVWVRQAPGKGLEWVSHIPPDGQDPFYADSVKGRFTISRDNSKNTLYLQMNSLRAEDTAVYHCALLPKRGPWFDYWGQGTLVTVSS
As for B1, the EC50 in assay [1] came to 1.47 nM; in assay [2] it was 4.64 nM.

B2: DOM1H-131-206 C-terminal ASTK (antibody, V domains shown)
VH: B1 VH with A14P
Regarding B2, the EC50 in assay [3] was found to be 1.59 nM.

B3: DOM1H-131-206 P14A, G44E (antibody, V domains shown)
VH: B1 VH with G44E
B3 came in with a half-maximal effective concentration (EC50) in assay [3] of 2.03 nM.

B4: DOM1H-131-206 P14T + C-terminal A (antibody, V domains shown)
VH: B1 VH with A14T
In assay [1], B4 gave an EC50 of 0.66 nM. That is a sub-nanomolar value.

B5: DOM1H-131-206 P14K + C-terminal ASTKG (antibody, V domains shown)
VH: B1 VH with A14K
In assay [1], B5 displayed an EC50 of 0.48 nM.

B6: DOM1H-131-206 P14A (antibody, V domains shown)
VH: B1 VH
B6 came in with an EC50 in assay [3] of 1.22 nM.

B7: DOM1H-131-206 P14Q (antibody, V domains shown)
VH: B1 VH with A14Q
In assay [1], B7 displayed an EC50 of 0.91 nM. This counts as sub-nanomolar.

B8: DOM1H-131-206 P14K (antibody, V domains shown)
VH: B1 VH with A14K
In assay [1], B8 registered an EC50 of 0.72 nM.

B9: DOM1H-131-206 P14T + C-terminal ASTKG (antibody, V domains shown)
VH: B1 VH with A14T
B9 showed an EC50 in assay [1] of 0.72 nM.

B10: DOM1H-131-206 K43A (antibody, V domains shown)
VH: B1 VH with A14P, K43A
Regarding B10, the response in assay [3] was half-maximal at 0.67 nM (EC50).

B11: DOM1H-131-206 P14K + C-terminal A (antibody, V domains shown)
VH: B1 VH with A14K
As for B11, in assay [1], a half-maximal response (EC50) required 0.46 nM.

B12: DOM1H-131-206 P14A + C-terminal A (antibody, V domains shown)
VH: B1 VH
As for B12, the EC50 turned out to be 0.57 nM in assay [1] and 2.22 nM in assay [2].

B13: DOM1H-131-206 P14T (antibody, V domains shown)
VH: B1 VH with A14T
For B13, the midpoint of the response in assay [1], the EC50, lay at 0.77 nM.

B14: DOM1H-131-206 C-terminal A (antibody, V domains shown)
VH: B1 VH with A14P
In the case of B14, the EC50 in assay [3] was found to be 1.21 nM; in assay [2], 2.71 nM. In assay [4], this molecule returned a Kd of 0.0253 nM.

B15: DOM1H-131-206 C-terminal ASTKG (antibody, V domains shown)
VH: B1 VH with A14P
Take B15: the EC50 in assay [3] was determined as 1.11 nM; in assay [2], 1.9 nM.

B16: DOM1H-131-206 P14Q + C-terminal A (antibody, V domains shown)
VH: B1 VH with A14Q
As to B16, the EC50 in assay [1] amounted to 0.46 nM.

B17: DOM1H-131-206 (antibody, V domains shown)
VH: B1 VH with A14P
For B17, the EC50 in assay [3] came out at 1.99 nM; in assay [1], 0.67 nM; in assay [2] it was 1.97 nM. In addition, binding in assay [4] was characterised by a dissociation constant (Kd) of 0.0143 nM.

B18: DOM1H-131-206 P14Q + C-terminal ASTKG (antibody, V domains shown)
VH: B1 VH with A14Q
In turn, B18 yielded an EC50 in assay [1] of 1.1 nM. This lies in the single-digit nanomolar range.

B19: DOM1H-131-206 P41A (antibody, V domains shown)
VH: B1 VH with A14P, P41A
In assay [3], B19 showed a concentration for a half-maximal effect (EC50) of 0.59 nM.

B20: DOM1H-131-206 L11A (antibody, V domains shown)
VH: B1 VH with L11A, A14P
B20 yielded an EC50 in assay [1] of 0.51 nM.

B21: DOM1H-131-206 C-terminal AST (antibody, V domains shown)
VH: B1 VH with A14P
In the case of B21, the EC50 in assay [1] came to 1.99 nM.

B22: DOM1H-131-206 Q13A (antibody, V domains shown)
VH: B1 VH with Q13A, A14P
B22 displayed an EC50 in assay [3] of 1.75 nM.

B23: DOM1H-131-206 C-terminal ASTKGP (antibody, V domains shown)
VH: B1 VH with A14P
Molecule B23 returned an EC50 in assay [3] of 11.9 nM. Compared with the last molecule, the EC50 is about 6.8-fold higher.

B24: DOM1H-131-206 G44E (antibody, V domains shown)
VH: B1 VH with A14P, G44E
Turning to B24, the EC50 in assay [3] stood at 0.86 nM.

B25: DOM1H-131-206 P14E (antibody, V domains shown)
VH: B1 VH with A14E
In turn, B25 gave an EC50 in assay [1] of 0.64 nM.

B26: VEGF165 (protein)
chain: APMAEGGGQNHHEVVKFMDVYQRSYCHPIETLVDIFQEYPDEIEYIFKPSCVPLMRCGGCCNDEGLECVPTEESNITMQIMRIKPHQGQHIGEMSFLQHNKCECRPKKDRARQENPCGPCSERRKHLFVQDPQTCKCSCKNTDSRCKARQLELNERTCRCDKPRR
Take B26: in assay [5], the Kd was 0.00431 pM.

B27: DOM1H-131-206 C-terminal S deletion (antibody, V domains shown)
VH: EVQLLESGGGLVQPGGSLRLSCAASGFTFAHETMVWVRQAPGKGLEWVSHIPPDGQDPFYADSVKGRFTISRDNSKNTLYLQMNSLRAEDTAVYHCALLPKRGPWFDYWGQGTLVTVS
In assay [1], B27 gave an EC50 of 0.5 nM. In other words, the sub-nanomolar range.

Usually EC50 stands for the concentration that produces a half-maximal response. Low values mean a more potent agent, high ones a less potent agent. As usually defined, the Kd is the equilibrium constant for the complex coming apart. Lower therefore signals a tighter complex.
